For one molecule, Kd results are on record in publication doi:10.1101/2024.05.15.594416 (bioRxiv, 2024).

Residue numbers refer to the chain shown, from its start. Names may count otherwise.

Experiment [1] deals with T1, soluble CD14 (sCD14), wildtype (human, UniProt P08571 20-367).
T1 sequence (looked up): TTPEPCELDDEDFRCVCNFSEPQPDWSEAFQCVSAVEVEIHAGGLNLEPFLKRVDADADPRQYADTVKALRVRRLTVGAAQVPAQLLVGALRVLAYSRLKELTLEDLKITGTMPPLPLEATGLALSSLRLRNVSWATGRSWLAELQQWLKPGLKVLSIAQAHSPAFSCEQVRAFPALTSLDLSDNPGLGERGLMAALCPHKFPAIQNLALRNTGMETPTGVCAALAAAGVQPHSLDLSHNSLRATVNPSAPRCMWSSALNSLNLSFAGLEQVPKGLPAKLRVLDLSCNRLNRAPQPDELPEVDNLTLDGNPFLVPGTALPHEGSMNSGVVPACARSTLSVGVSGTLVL
Put plainly: BLI.

For experiment [2], the target named is T2, soluble CD14 Surface II mutant (R90E/R92E/R117E) (human, UniProt P08571 20-367, R90E | R92E | R117E).
T2 sequence (looked up): T1 sequence (looked up) with R71E, R73E, R98E
Put plainly: BLI.

B1: S100A9/C3S/P114C, biotinylated (natural protein, human)
chain: TSKMSQLERNIETIINTFHQYSVKLGHPDTLNQGEFKELVRKDLQNFLKKENKNEKVIEHIMEDLDTNADKQLSFEEFIMLMARLTWASHEKMHEGDEGPGHHHKPGLGEGTC
modifications: biotin (EZ-link BMCC kit; biotinylation confirmed by MALDI-TOF)
Consider B1, for which the Kd in experiment [1] was 3.9 µM; in experiment [2] it was 10 µM.
